Reference: paper PMC5131957, “p53 Specifically Binds Triplex DNA In Vitro and in Cells”

B1: T.A.T triplex, biotinylated (structured_DNA)
DNA 1: TTTTTTTTTTTTTTTTTTTTTTTTTTTTTTTTTTTTTTTTTTTTTTTTTT
DNA 2: AAAAAAAAAAAAAAAAAAAAAAAAAAAAAAAAAAAAAAAAAAAAAAAAAA
DNA 3: B1 DNA 1
B2: CON, biotinylated (dsDNA)
DNA 1: GACGGTATCGATAAGAGACATGCCTAGACATGCCTCTTGATATCGAATTC
DNA 2: GAATTCGATATCAAGAGGCATGTCTAGGCATGTCTCTTATCGATACCGTC

Experiments:
p53T (last 30 aa, CTDBD) = p53T (last 30 aa, CTDBD) (human, UniProt P04637 363-393); test: ELISA; 2 mM Mg2+; EMSA: 5 mM Tris-HCl pH 8, 1 mM MgCl2, 0.01% Triton X-100, 50 mM KCl, on ice or 25 C, 30 min, pBSK/SmaI competitor 5-50 ng; ELISA: 1x PBS, 2 mM MgCl2, temperature not stated; conditions: protein: recombinant; tags: GST (with or without); label: 3' biotin on (dA)50; intermolecular triplex, 2 x (dT)50 + 1 x (dA)50
Chain of p53T (last 30 aa, CTDBD) (P04637 363-393): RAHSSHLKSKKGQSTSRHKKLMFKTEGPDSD

[1] = molecular target: p53CT (C-terminal segment: tetramerization domain + CTDBD) (human, UniProt P04637 320-393); test: as above; conditions: protein: recombinant; tags: GST (with or without); chain copies: 4; label: 3' biotin on (dA)50; intermolecular triplex, 2 x (dT)50 + 1 x (dA)50
Chain of p53CT (C-terminal segment: tetramerization domain + CTDBD) (P04637 320-393): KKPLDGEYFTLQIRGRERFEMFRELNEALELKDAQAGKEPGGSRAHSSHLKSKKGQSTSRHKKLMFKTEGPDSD

p53 full length = p53 full length (human, UniProt P04637 1-393); test: ELISA; DO1 antibody; 2 mM Mg2+; EMSA: 5 mM Tris-HCl pH 8, 1 mM MgCl2, 0.01% Triton X-100, 50 mM KCl, on ice or 25 C, 30 min, pBSK/SmaI competitor 5-50 ng; ELISA: 1x PBS, 2 mM MgCl2, temperature not stated; conditions: protein: recombinant, chain copies: 4
Chain of p53 full length (P04637 whole entry): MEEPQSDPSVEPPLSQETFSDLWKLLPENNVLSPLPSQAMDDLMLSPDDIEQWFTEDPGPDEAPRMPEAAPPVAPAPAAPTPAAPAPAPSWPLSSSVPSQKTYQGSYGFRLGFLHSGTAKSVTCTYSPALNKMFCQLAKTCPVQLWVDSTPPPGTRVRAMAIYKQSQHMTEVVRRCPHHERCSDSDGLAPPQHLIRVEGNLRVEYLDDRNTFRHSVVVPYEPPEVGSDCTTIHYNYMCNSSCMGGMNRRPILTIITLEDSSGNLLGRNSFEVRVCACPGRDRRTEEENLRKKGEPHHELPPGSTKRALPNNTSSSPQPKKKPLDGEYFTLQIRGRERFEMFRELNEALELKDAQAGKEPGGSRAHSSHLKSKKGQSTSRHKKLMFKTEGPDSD

Binder	Kd (p53T (last 30 aa, CTDBD))	Kd [1]	Kd (p53 full length; label: 3' biotin on (dA)50, intermolecular triplex, 2 x (dT)50 + 1 x (dA)50)	Kd (p53 full length; label: 3' biotin on strand 1, blunt)
B1	10.4 ± 0.84 nM	1.88 ± 0.3 nM	0.75 ± 0.07 nM	–
B2	–	–	–	0.58 ± 0.05 nM
